Reference: publication PMC2198810

Assays:
[1] = molecular target: actin (African green monkey (endogenous in CV1)); experiment: pull-down
[2] = molecular target: gelsolin (African green monkey (endogenous in CV1)); experiment: co-IP

In the case of gelsolin (natural protein), the actin:gelsolin staining intensity ratio, PIP5KI-overexpressing cells [1] is reported as 1.25 and the actin:gelsolin staining intensity ratio, β-gal cells [1] is reported as 1.91.

In the case of actin (natural protein), the actin:gelsolin 35S intensity ratio, PIP5KI-overexpressing cells [2] is reported as 25.7% and the actin:gelsolin 35S intensity ratio, β-gal cells [2] is reported as 39.4%.

In the case of profilin (natural protein), the decrease in profilin bound to actin, PIP5KI-overexpressing against β-gal cells [1] is reported as 51%.
